Results as given in article PMC8595303, “Dramatic activation of an antibody by a single amino acid change in framework” (Scientific Reports, 2021).
Where a chain is given by its changes, count along the chain named. In names and notes the source's numbering stands.

B1: h4A11.v2.1 (antibody, V domains shown)
VH: EQQLVESGGGLVQPGGSLSLSCAVSGFSLSSYTVNWVRQAPGKGLEWIGYISYGGSAYYASWANGRFTISKDSAKNSVYLQMNSLRAEDTAVYFCARHMQVGGAPTGSMAAFDPWGPGTLVTVSS
VL: DAQLTQSPSSLSASVGDRVTITCQSSQSVYNNNYLSWFQQKPGKPPKLLIYGASTLTSGVPSRFSGSGSGTDFTLTISSLQPEDFATYYCAGGYSGSSDKYAFGGGTKVEIK
notes: as the VH of m7 (h4A11.v2) with the stated change; numbers count on: Kabat numbering of the heavy chain; as the VL of m7 (h4A11.v2); human IgG1; also called v2.1_R19S; source: Expi293F, transient, purified (Protein A, SEC)
B2: h4A11.v2.5 (antibody, V domains shown)
VH: B1 VH with Q81S
VL: B1 VL
notes: as the VH of m7 (h4A11.v2) with the stated changes; numbers count on: Kabat numbering of the heavy chain; as the VL of m7 (h4A11.v2); human IgG1; also called v2.5_ R19S, Q81S; source: Expi293F, transient, purified (Protein A, SEC)
B3: h4A11.v2.4 (antibody, V domains shown)
VH: B1 VH with Y79S
VL: B1 VL
notes: as the VH of m7 (h4A11.v2) with the stated changes; numbers count on: Kabat numbering of the heavy chain; as the VL of m7 (h4A11.v2); human IgG1; also called v2.4_ R19S, Y79S; source: Expi293F, transient, purified (Protein A, SEC)
B4: h4A11.v2.3 (antibody, V domains shown)
VH: B1 VH with S19R, Q81A
VL: B1 VL
notes: as the VH of m7 (h4A11.v2) with the stated change; numbers count on: Kabat numbering of the heavy chain; as the VL of m7 (h4A11.v2); human IgG1; also called v2.3_Q81A; source: Expi293F, transient, purified (Protein A, SEC)
B5: h4A11.v2.2 (antibody, V domains shown)
VH: B1 VH with S19R, Q81N
VL: B1 VL
notes: as the VH of m7 (h4A11.v2) with the stated change; numbers count on: Kabat numbering of the heavy chain; as the VL of m7 (h4A11.v2); human IgG1; also called v2.2_Q81N; source: Expi293F, transient, purified (Protein A, SEC)
B6: h4A11.v2.6 (antibody, V domains shown)
VH: B1 VH with Y79S, Q81S
VL: B1 VL
notes: as the VH of m7 (h4A11.v2) with the stated changes; numbers count on: Kabat numbering of the heavy chain; as the VL of m7 (h4A11.v2); human IgG1; also called v2.6_ R19S, Y79S, Q81S; source: Expi293F, transient, purified (Protein A, SEC)
B7: h4A11.v7.6 (antibody, V domains shown)
VH: EQQLQESGPGLVKPSETLRLTCTVTGFSLSSYTVNWVRQPAGKGLEWIGYISYGGSAYYASWANGRFTISKDSSKNQVWLRLSSVTAADTAVYFCARHMQVGGAPTGSMAAFDPWGPGTLVTVSS
VL: EAVLTQSPGTLSLSPGERATLSCQSSQSVYNNNYLSWFQQKPGQPPRLLIYGASTLTSGVPDRFSGSGSGTDFTLTISRLEPEDFAVYYCAGGYSGSSDKYAFGGGTKVEIK
notes: as the VH of m12 (h4A11.v7); numbers count on: Kabat numbering of the heavy chain; as the VL of m12 (h4A11.v7); human IgG1; also called v7.6_S19R, S79W, K81R; source: Expi293F, transient, purified (Protein A, SEC)
B8: h4A11.v7.2 (antibody, V domains shown)
VH: B7 VH with R81K
VL: B7 VL
notes: as the VH of m12 (h4A11.v7); numbers count on: Kabat numbering of the heavy chain; as the VL of m12 (h4A11.v7); human IgG1; also called v7.2_S19R, S79W; source: Expi293F, transient, purified (Protein A, SEC)
B9: h4A11.v7.5 (antibody, V domains shown)
VH: B7 VH with R81Q
VL: B7 VL
notes: as the VH of m12 (h4A11.v7); numbers count on: Kabat numbering of the heavy chain; as the VL of m12 (h4A11.v7); human IgG1; also called v7.5_S19R, S79W, K81Q; source: Expi293F, transient, purified (Protein A, SEC)
B10: h4A11.v7.3 (antibody, V domains shown)
VH: B7 VH with W79Y, R81Q
VL: B7 VL
notes: as the VH of m12 (h4A11.v7); numbers count on: Kabat numbering of the heavy chain; as the VL of m12 (h4A11.v7); human IgG1; also called v7.3_S19R, S79Y, K81Q; source: Expi293F, transient, purified (Protein A, SEC)
B11: h4A11.v7.1 (antibody, V domains shown)
VH: B7 VH with W79Y, R81K
VL: B7 VL
notes: as the VH of m12 (h4A11.v7); numbers count on: Kabat numbering of the heavy chain; as the VL of m12 (h4A11.v7); human IgG1; also called v7.1_S19R, S79Y; source: Expi293F, transient, purified (Protein A, SEC)
B12: h4A11.v7.4 (antibody, V domains shown)
VH: B7 VH with W79Y
VL: B7 VL
notes: as the VH of m12 (h4A11.v7); numbers count on: Kabat numbering of the heavy chain; as the VL of m12 (h4A11.v7); human IgG1; also called v7.4_S19R, S79Y, K81R; source: Expi293F, transient, purified (Protein A, SEC)
B13: humanized 4A11 variant 3 (antibody, V domains shown)
VH: B7 VH with R19S, W79S, R81K
VL: DAVLTQSPDSLAVSLGERATINCQSSQSVYNNNYLSWFQQKPGQPPKLLIYGASTLTSGVPDRFSGSGSGTDFTLTISSLQAEDVAVYYCAGGYSGSSDKYAFGGGTKVEIK
notes: as the VH of m12 (h4A11.v7): rbt4A11 CDRs and rabbit Vernier residues grafted on human germline IGHV4-59*06; as the VL of m6 (h4A11.v1): rbt4A11 CDRs and rabbit Vernier residues grafted on human germline IGKV4-1*01; human IgG1; also called h4A11.v3; v3; source: Expi293F, transient, purified (Protein A, SEC)
B14: humanized 4A11 variant 4 (antibody, V domains shown)
VH: B7 VH with R19S, W79S, R81K
VL: B1 VL
notes: as the VH of m12 (h4A11.v7): rbt4A11 CDRs and rabbit Vernier residues grafted on human germline IGHV4-59*06; as the VL of m7 (h4A11.v2): rbt4A11 CDRs and rabbit Vernier residues grafted on human germline IGKV1D-39*01; human IgG1; also called h4A11.v4; v4; source: Expi293F, transient, purified (Protein A, SEC)
B15: rabbit monoclonal antibody 4A11 (antibody, V domains shown)
VH: QSLEESGGRLVTPGTPLTLTCTVSGFSLSSYTVNWVRQAPGKGLEWIGYISYGGSAYYASWANGRFTISKTSATVDLKITSPTTEDTATYFCARHMQVGGAPTGSMAAFDPWGPGTLVTVSS
VL: AAVLTQTPSPVSAAVGGTVSISCQSSQSVYNNNYLSWFQQKPGQPPKLLIYGASTLTSGVPSRFKGSGSGTQFTLTISDVQCDDAATYYCAGGYSGSSDKYAFGGGTEVVVK
notes: VH of rbt4A11; VL of rbt4A11; Parental rabbit antibody; also called rbt4A11

What follows are binders tested against T1, human mature TGFβ1 (Homo sapiens, UniProt P01137) (assay: SPR; Biacore T200; antibody captured on a Protein A sensor chip (about 90 RU); mature TGFβ isoform injected, five-fold dilutions 0.008 nM to 5 nM; HBS-EP pH 7.4, 150 mM NaCl; 37 °C; 100 μl/min; 3 min association, 60 min dissociation; one-to-one Langmuir model, global fit). Details: both partners purified.
T1 construct: Transforming Growth Factor-beta 1, human, mature form (cut from the precursor); also called TGFb1; source: bought: PeproTech
T1 sequence (P01137 279-390): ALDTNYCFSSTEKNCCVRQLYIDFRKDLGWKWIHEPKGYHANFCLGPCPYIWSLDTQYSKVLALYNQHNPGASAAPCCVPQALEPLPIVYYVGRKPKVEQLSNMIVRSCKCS

| Binder | Kd | binding result |
| --- | --- | --- |
| B1 | > 5 nM | no binding (tested: 5 nM) |
| B2 | > 5 nM | no binding (tested: 5 nM) |
| B3 | > 5 nM | no binding (tested: 5 nM) |
| B4 | > 5 nM | no binding (tested: 5 nM) |
| B5 | > 5 nM | no binding (tested: 5 nM) |
| B6 | > 5 nM | no binding (tested: 5 nM) |
| B7 | > 5 nM | no binding (tested: 5 nM) |
| B8 | > 5 nM | no binding (tested: 5 nM) |
| B9 | > 5 nM | no binding (tested: 5 nM) |
| B10 | > 5 nM | no binding (tested: 5 nM) |
| B11 | > 5 nM | no binding (tested: 5 nM) |
| B12 | > 5 nM | no binding (tested: 5 nM) |

Each binder was assayed against T2, human mature TGFβ2 (PeproTech) (Homo sapiens, UniProt P61812) in the same assay as above. Details: both partners purified.
T2 construct: Transforming Growth Factor-beta 2, human, mature form (cut from the precursor); also called TGFb2; source: bought: PeproTech
T2 sequence (P61812 303-414): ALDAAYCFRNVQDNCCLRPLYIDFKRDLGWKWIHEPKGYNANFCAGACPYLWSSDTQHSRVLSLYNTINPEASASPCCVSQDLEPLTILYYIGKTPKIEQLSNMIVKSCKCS

| Binder | Kd |
| --- | --- |
| B1 | 0.0022 nM |
| B2 | 0.0017 nM |
| B3 | 0.0014 nM |
| B4 | 0.0034 nM |
| B5 | 0.0045 nM |
| B6 | 0.0019 nM |
| B7 | 0.0097 nM |
| B8 | 0.0096 nM |
| B9 | 0.0056 nM |
| B10 | 0.0057 nM |
| B11 | 0.0107 nM |
| B12 | 0.0112 nM |

Each binder was assayed against T3, human mature TGFβ3 (Homo sapiens, UniProt P10600) in the same assay as above. Details: both partners purified.
T3 construct: Transforming Growth Factor-beta 3, human, mature form (cut from the precursor); also called TGFb3; source: bought: PeproTech
T3 sequence (P10600 301-412): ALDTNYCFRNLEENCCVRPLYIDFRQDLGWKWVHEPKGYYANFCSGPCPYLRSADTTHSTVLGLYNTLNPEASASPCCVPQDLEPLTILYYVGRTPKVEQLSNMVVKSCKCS

| Binder | Kd |
| --- | --- |
| B1 | 0.0006 nM |
| B2 | 0.0006 nM |
| B3 | 0.0006 nM |
| B4 | 0.0055 nM |
| B5 | 0.006 nM |
| B6 | 0.0005 nM |
| B7 | 0.0156 nM |
| B8 | 0.0228 nM |
| B9 | 0.0072 nM |
| B10 | 0.008 nM |
| B11 | 0.0405 nM |
| B12 | 0.0188 nM |

These binders were tested against T1, human mature TGFβ1 (assay: cell-based or functional assay). Details: not given.

| Binder | TGFβ inhibition by HEK-Blue cells (IC50: nM), TGFb1 |
| --- | --- |
| B13 | > 667 nM |
| B14 | > 667 nM |
| B15 | > 667 nM |

What follows are binders tested against T2, human mature TGFβ2 (PeproTech) (assay: cell-based or functional assay). Details: not given.

| Binder | TGFβ inhibition by HEK-Blue cells (IC50: nM), TGFb2; Blocking: Complete |
| --- | --- |
| B13 | 3.9 nM |
| B14 | 1.9 nM |
| B15 | 0.9 nM |

These binders were tested against T3, human mature TGFβ3 (assay: cell-based or functional assay). Details: not given.

| Binder | TGFβ inhibition by HEK-Blue cells (IC50: nM), TGFb3; Blocking: Complete |
| --- | --- |
| B13 | 0.2 nM |
| B14 | 0.1 nM |
| B15 | 0.1 nM |

Target: T1, human mature TGFβ1
Assay: SPR; Biacore T200; antibody captured on a Protein A sensor chip (about 90 RU); mature TGFβ isoform injected, five-fold dilutions 0.008 nM to 5 nM; HBS-EP pH 7.4, 150 mM NaCl; 37 °C; 100 μl/min; 3 min association, 60 min dissociation; one-to-one Langmuir model, global fit
Details: both partners purified
Remark: another data set of the same source

| Binder | Kd | binding result |
| --- | --- | --- |
| B13 | > 5 nM | no binding (tested: 5 nM) |
| B14 | > 5 nM | no binding (tested: 5 nM) |
| B15 | > 5 nM | no binding (tested: 5 nM) |

Target: T2, human mature TGFβ2 (PeproTech)
Assay: as above
Details: both partners purified
Remark: another data set of the same source

| Binder | Kd |
| --- | --- |
| B13 | 0.0096 nM |
| B14 | 0.01 nM |
| B15 | 0.0016 nM |

Target: T3, human mature TGFβ3
Assay: as above
Details: both partners purified
Remark: another data set of the same source

| Binder | Kd |
| --- | --- |
| B13 | 0.0121 nM |
| B14 | 0.0101 nM |
| B15 | 0.0012 nM |

Target: T2, human mature TGFβ2 (PeproTech)
Assay: cell-based or functional assay
Details: not given
Remark: another data set of the same source

| Binder | TGFβ inhibition by HEK-Blue cells (IC50: nM), TGFb2; Blocking: Complete | TGFβ inhibition by HEK-Blue cells (IC50: nM), TGFb2; Blocking: Incomplete |
| --- | --- | --- |
| B1 | 0.7 nM | – |
| B2 | 0.7 nM | – |
| B3 | 2.2 nM | – |
| B4 | 1.7 nM | – |
| B5 | 2.2 nM | – |
| B6 | 1.7 nM | – |
| B7 | – | > 667 nM |
| B8 | – | > 667 nM |
| B9 | – | > 667 nM |
| B10 | – | > 667 nM |
| B11 | – | > 667 nM |
| B12 | – | > 667 nM |

Target: T3, human mature TGFβ3
Assay: cell-based or functional assay
Details: not given
Remark: another data set of the same source

| Binder | TGFβ inhibition by HEK-Blue cells (IC50: nM), TGFb3; Blocking: Complete | TGFβ inhibition by HEK-Blue cells (IC50: nM), TGFb3; Blocking: Incomplete |
| --- | --- | --- |
| B1 | 0.1 nM | – |
| B2 | 0.1 nM | – |
| B3 | 0.2 nM | – |
| B4 | 0.7 nM | – |
| B5 | 0.4 nM | – |
| B6 | 0.3 nM | – |
| B7 | – | > 667 nM |
| B8 | – | > 667 nM |
| B9 | – | > 667 nM |
| B10 | – | > 667 nM |
| B11 | – | > 667 nM |
| B12 | – | > 667 nM |
